From US20230365675A1 (published 2023)

What was measured:
[1] = biological target: T1, Mutant CD33-GFP M8 (K52A) on 293FT cells (UniProt P20138 18-364); assay: FACS, mutant CD33-GFP on 293FT cells
T1 construct: whole, on cells; not shown: GFP fused to CD33

[2] = biological target: T2, Mutant CD33-GFP M7 (R98D) on 293FT cells (UniProt P20138 18-364); assay: FACS, mutant CD33-GFP on 293FT cells
T2 construct: whole, on cells; not shown: GFP fused to CD33

[3] = biological target: T3, Mutant CD33-GFP M6 (F43N) on 293FT cells (UniProt P20138 18-364); assay: FACS, mutant CD33-GFP on 293FT cells
T3 construct: whole, on cells; not shown: GFP fused to CD33

CD33 on MOLM-13 cells = biological target: T4, CD33 on MOLM-13 cells (human, UniProt P20138 18-364); assay: FACS, MOLM-13 cells expressing CD33 against MOLM-13 CD33 knockout
T4 construct: whole, on cells; also called MOLM-13 cell line expressing CD33; wild-type MOLM-13 cells (CD33+)
From the text: A naïve llama phage library was panned and screened to identify single domain antibodies that specifically recognize CD33. A MOLM-13 cell line expressing CD33 was used as a CD33-positive cell line, and a MOLM-13 cell line harboring a knockout of CD33 was used as a CD-33 negative cell line. A purified anti-human CD33 antibody was used as a positive control. Specific binding activity of identified binders was confirmed by FACS. The heavy chain variable region sequences of the identified binders are included herein.

[4] = biological target: Mutant CD33-GFP N20D on 293FT cells (UniProt P20138); assay: FACS, mutant CD33-GFP on 293FT cells
[5] = biological target: Mutant CD33-GFP M18 (353AAL) on 293FT cells (UniProt P20138); assay: FACS, mutant CD33-GFP on 293FT cells
[6] = biological target: Mutant CD33-GFP M17 (F21Y) on 293FT cells (UniProt P20138); assay: FACS, mutant CD33-GFP on 293FT cells
[7] = biological target: Mutant CD33-GFP JS23 (L23N) on 293FT cells (UniProt P20138); assay: FACS, mutant CD33-GFP on 293FT cells
[8] = biological target: Mutant CD33-GFP M16 (4889AII) on 293FT cells (UniProt P20138); assay: FACS, mutant CD33-GFP on 293FT cells
[9] = biological target: Mutant CD33-GFP M15 (Q171A) on 293FT cells (UniProt P20138); assay: FACS, mutant CD33-GFP on 293FT cells
[10] = biological target: Mutant CD33-GFP M19 (348ATAI) on 293FT cells (UniProt P20138); assay: FACS, mutant CD33-GFP on 293FT cells
[11] = biological target: Mutant CD33-GFP JS24 (Q24E) on 293FT cells (UniProt P20138); assay: FACS, mutant CD33-GFP on 293FT cells
[12] = biological target: Mutant CD33-GFP M4 (R122D) on 293FT cells (UniProt P20138); assay: FACS, mutant CD33-GFP on 293FT cells
[13] = biological target: Mutant CD33-GFP M12 (G88S) on 293FT cells (UniProt P20138); assay: FACS, mutant CD33-GFP on 293FT cells
[14] = biological target: Mutant CD33-GFP M10 (Y127A) on 293FT cells (UniProt P20138); assay: FACS, mutant CD33-GFP on 293FT cells
[15] = biological target: Mutant CD33-GFP JS28 (S28L) on 293FT cells (UniProt P20138); assay: FACS, mutant CD33-GFP on 293FT cells
[16] = biological target: Mutant CD33-GFP M5 (AEAD), quadruple mutant, on 293FT cells (UniProt P20138); assay: FACS, mutant CD33-GFP on 293FT cells
[17] = biological target: Mutant CD33-GFP JS25 (V25M) on 293FT cells (UniProt P20138); assay: FACS, mutant CD33-GFP on 293FT cells
[18] = biological target: Mutant CD33-GFP M11 (L78T) on 293FT cells (UniProt P20138); assay: FACS, mutant CD33-GFP on 293FT cells
[19] = biological target: Mutant CD33-GFP M9 (Y49, 50A) on 293FT cells (UniProt P20138); assay: FACS, mutant CD33-GFP on 293FT cells
[20] = biological target: Mutant CD33-GFP M13 (R91E) on 293FT cells (UniProt P20138); assay: FACS, mutant CD33-GFP on 293FT cells
[21] = biological target: Mutant CD33-GFP M14 (E170R) on 293FT cells (UniProt P20138); assay: FACS, mutant CD33-GFP on 293FT cells
[22] = biological target: Biotinylated CD33 protein (UniProt P20138); assay: Octet competition on biotinylated CD33; competitor 413
[23] = biological target: Biotinylated CD33 protein (UniProt P20138); assay: Octet competition on biotinylated CD33; competitor 430
[24] = biological target: Biotinylated CD33 protein (UniProt P20138); assay: Octet competition on biotinylated CD33; competitor 353
[25] = biological target: Biotinylated CD33 protein (UniProt P20138); assay: Octet competition on biotinylated CD33; competitor 348
[26] = biological target: Biotinylated CD33 protein (UniProt P20138); assay: Octet competition on biotinylated CD33; competitor 416
[27] = biological target: Biotinylated CD33 protein (UniProt P20138); assay: Octet competition on biotinylated CD33; competitor 424
[28] = biological target: Biotinylated CD33 protein (UniProt P20138); assay: Octet competition on biotinylated CD33; competitor 429
[29] = biological target: CD33-GFP fusion protein, wild type (WT), on 293FT cells (UniProt P20138); assay: FACS, WT CD33-GFP on 293FT cells
[30] = biological target: Biotinylated CD33 protein (UniProt P20138); assay: Octet competition on biotinylated CD33; competitor 420
[31] = biological target: T5, Mutant CD33-GFP M3 (N99A) on 293FT cells (UniProt P20138 18-364); assay: FACS, mutant CD33-GFP on 293FT cells
T5 construct: whole, on cells; not shown: GFP fused to CD33

[32] = biological target: T6, Mutant CD33-GFP M2 (H45E) on 293FT cells (UniProt P20138 18-364); assay: FACS, mutant CD33-GFP on 293FT cells
T6 construct: whole, on cells; not shown: GFP fused to CD33

[33] = biological target: T7, Mutant CD33-GFP M1 (W22A) on 293FT cells (UniProt P20138 18-364); assay: FACS, mutant CD33-GFP on 293FT cells
T7 construct: whole, on cells; not shown: GFP fused to CD33

[34] = biological target: Biotinylated CD33 protein (UniProt P20138); assay: Octet competition on biotinylated CD33; competitor 389
[35] = biological target: Biotinylated CD33 protein (UniProt P20138); assay: Octet competition on biotinylated CD33; competitor h195
[36] = biological target: Biotinylated CD33 protein (UniProt P20138); assay: Octet competition on biotinylated CD33; competitor 426

CD33-GFP fusion protein, wild type (WT), on 293FT cells, sequence (P20138 18-364): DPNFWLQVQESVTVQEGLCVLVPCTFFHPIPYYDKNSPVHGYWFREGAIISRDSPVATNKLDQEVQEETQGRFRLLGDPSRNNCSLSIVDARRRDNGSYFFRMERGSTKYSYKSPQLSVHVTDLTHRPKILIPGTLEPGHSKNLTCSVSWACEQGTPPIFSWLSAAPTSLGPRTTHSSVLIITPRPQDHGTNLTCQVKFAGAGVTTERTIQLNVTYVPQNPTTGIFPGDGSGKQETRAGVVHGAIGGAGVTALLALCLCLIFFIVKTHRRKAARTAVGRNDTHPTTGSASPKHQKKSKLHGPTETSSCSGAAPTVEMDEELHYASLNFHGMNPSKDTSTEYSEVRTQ
T4 sequence (P20138 18-364): as above
Mutant CD33-GFP M15 (Q171A) on 293FT cells, sequence (P20138 18-364 Q171A): as the sequence (P20138 18-364) above, with Q154A counted along it
Mutant CD33-GFP M10 (Y127A) on 293FT cells, sequence (P20138 18-364 Y127A): as the sequence (P20138 18-364) above, with Y110A counted along it
Mutant CD33-GFP JS23 (L23N) on 293FT cells, sequence (P20138 18-364 L23N): as the sequence (P20138 18-364) above, with L6N counted along it
T1 sequence (P20138 18-364 K52A): as the sequence (P20138 18-364) above, with K35A counted along it
T5 sequence (P20138 18-364 N99A): as the sequence (P20138 18-364) above, with N82A counted along it
T6 sequence (P20138 18-364 H45E): as the sequence (P20138 18-364) above, with H28E counted along it
Mutant CD33-GFP M14 (E170R) on 293FT cells, sequence (P20138 18-364 E170R): as the sequence (P20138 18-364) above, with E153R counted along it
Mutant CD33-GFP JS25 (V25M) on 293FT cells, sequence (P20138 18-364 V25M): as the sequence (P20138 18-364) above, with V8M counted along it
T7 sequence (P20138 18-364 W22A): as the sequence (P20138 18-364) above, with W5A counted along it
Mutant CD33-GFP M13 (R91E) on 293FT cells, sequence (P20138 18-364 R91E): as the sequence (P20138 18-364) above, with R74E counted along it
Mutant CD33-GFP M11 (L78T) on 293FT cells, sequence (P20138 18-364 L78T): as the sequence (P20138 18-364) above, with L61T counted along it
Mutant CD33-GFP M9 (Y49, 50A) on 293FT cells, sequence (P20138 other isoform, or with tags, fused parts or gaps mutant): as the sequence (P20138 18-364) above, with Y32A, Y33A counted along it
Mutant CD33-GFP M5 (AEAD), quadruple mutant, on 293FT cells, sequence (P20138 other isoform, or with tags, fused parts or gaps mutant): as the sequence (P20138 18-364) above, with W5A, H28E, N82A, R105D counted along it
Mutant CD33-GFP M17 (F21Y) on 293FT cells, sequence (P20138 18-364 F21Y): as the sequence (P20138 18-364) above, with F4Y counted along it
Biotinylated CD33 protein, sequence (P20138 18-259 limits assumed): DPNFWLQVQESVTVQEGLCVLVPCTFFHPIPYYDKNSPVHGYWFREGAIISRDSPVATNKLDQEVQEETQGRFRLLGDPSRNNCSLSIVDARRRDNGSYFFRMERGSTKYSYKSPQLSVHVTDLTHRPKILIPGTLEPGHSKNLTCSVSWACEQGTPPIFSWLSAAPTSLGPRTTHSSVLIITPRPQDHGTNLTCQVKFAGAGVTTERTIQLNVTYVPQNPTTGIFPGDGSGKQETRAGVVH
T3 sequence (P20138 18-364 F43N): as the sequence (P20138 18-364) above, with F26N counted along it
Mutant CD33-GFP JS24 (Q24E) on 293FT cells, sequence (P20138 18-364 Q24E): as the sequence (P20138 18-364) above, with Q7E counted along it
Mutant CD33-GFP JS28 (S28L) on 293FT cells, sequence (P20138 18-364 S28L): as the sequence (P20138 18-364) above, with S11L counted along it
Mutant CD33-GFP M4 (R122D) on 293FT cells, sequence (P20138 18-364 R122D): as the sequence (P20138 18-364) above, with R105D counted along it
Mutant CD33-GFP M12 (G88S) on 293FT cells, sequence (P20138 18-364 G88S): as the sequence (P20138 18-364) above, with G71S counted along it
T2 sequence (P20138 18-364 R98D): as the sequence (P20138 18-364) above, with R81D counted along it
Mutant CD33-GFP N20D on 293FT cells, sequence (P20138 18-364 N20D): as the sequence (P20138 18-364) above, with N3D counted along it

Row | Binder | FACS binding data [1] | FACS binding data [2] | FACS binding data [3] | binding result (CD33 on MOLM-13 cells) | FACS binding data [4] | FACS binding data [5] | FACS binding data [6] | FACS binding data [7] | FACS binding data [8] | FACS binding data [9] | FACS binding data [10] | FACS binding data [11] | FACS binding data [12] | FACS binding data [13] | FACS binding data [14] | FACS binding data [15] | FACS binding data [16] | FACS binding data [17] | FACS binding data [18] | FACS binding data [19] | other results
1 | sdCD33_9 (VHH, sdAb from a naive llama phage library; also called 426; sdAb426) VHH: QVKLEESGGGLVRAGGSLRLSCAASGGTFSTYAMAWFRQAPGKEREFVAAITWGGGSTYYEDSVKGRFTISRDNAKNTGVLQMNNLDVDDTAVYYCYAFGRSRAGDANGDYWGQGTQVTVSS | 96.8 | 99.1 | 99.2 | binds | 99.1 | 99.3 | 99.1 | 99.2 | 99 | 99.3 | 99.8 | 99.4 | 95.9 | 99.2 | 96.1 | 99.7 | 1.2 | 99.7 | 77.8 | 1.25 | FACS binding data [20]: 99.3; FACS binding data [21]: 99.2; Octet signal [22]: 0.257; Octet signal [23]: 0.538; Octet signal [24]: 0.259; Octet signal [25]: 0.183; Octet signal [26]: 0.304; Octet signal [27]: 0.0441; Octet signal [28]: 0.0225; FACS binding data [29]: 99.2; Octet signal [30]: 0.191; FACS binding data [31]: 99.5; FACS binding data [32]: 97.7; FACS binding data [33]: 99.5; Octet signal [34]: 0.53; Octet signal [35]: 0.743
2 | sdCD33_8 (VHH, sdAb from a naive llama phage library; also called 424; sdAb424) VHH: QVQLVESGGGLVQAGGSLRLSCAASGGAFSTYTMGWFRQAPGKEREFVAAIAWTGTHTYYSDSVKGRFTISRDNDKNTVFLQMNSLKPEDTAVYYCAQASSRYRAVTDSLSENHWGPGTQVTVST | 95.4 | 97.2 | 98.6 | binds | 98.3 | 70.2 | 99 | 97.8 | 98.5 | 98.7 | 99.5 | 99.4 | 98.6 | 98.8 | 83.7 | 99.6 | 0.07 | 99.6 | 65.9 | 0.23 | Octet signal [36]: 0.239; FACS binding data [20]: 99.1; FACS binding data [21]: 98.8; Octet signal [22]: 0.37; Octet signal [23]: 0.733; Octet signal [24]: 0.444; Octet signal [25]: 0.154; Octet signal [26]: 0.086; Octet signal [28]: 0.163; FACS binding data [29]: 98.6; Octet signal [30]: 0.266; FACS binding data [31]: 3.43; FACS binding data [32]: 97.3; FACS binding data [33]: 80.1; Octet signal [34]: 0.356; Octet signal [35]: 0.648
3 | sdCD33_7 (VHH, sdAb from a naive llama phage library; also called 420; sdAb420) VHH: EVQLVESGGGLVQPGGSLRLSCVASGFTFKDYGMTWVRQAPGKALEWVSDINSAGDGIYYSDSVKGRFTISRDDSKGTLYLQMNSLTPEDTAIYYCAAERQRAGDVKRSLAPITAHIWGQGTQVTVSS | 8.64 | 74.8 | 98.3 | binds | 99.1 | 99.1 | 99.1 | 98.7 | 98.5 | 98.9 | 99.4 | 99.1 | 97.8 | 98.7 | 98.1 | 99.6 | 0.15 | 99.5 | 72.4 | 34.6 | Octet signal [36]: 0.0276; FACS binding data [20]: 98.8; FACS binding data [21]: 98.7; Octet signal [22]: 0.2; Octet signal [23]: 0.457; Octet signal [24]: 0.183; Octet signal [25]: 0.139; Octet signal [26]: -0.094; Octet signal [27]: -0.0931; Octet signal [28]: -0.124; FACS binding data [29]: 98.6; FACS binding data [31]: 98.9; FACS binding data [32]: 91.5; FACS binding data [33]: 98.4; Octet signal [34]: 0.376; Octet signal [35]: 0.579
4 | sdCD33_6 (VHH, sdAb from a naive llama phage library; also called 416; sdAb416) VHH: EVQLVESGGGLVQPRGSLRLSCVVSGSMSSIYSMSWYRQPPGKQRELVAHITTTGTTNYIDSVKGRFTISIDNDINVIYLQMNTLKPEDTAVYYCNAGLKAGPGPRLDYWGLGTQVTVSS | 98.9 | 98.6 | 97.9 | binds | 99 | 99.8 | 99.1 | 94.3 | 80.8 | 98.9 | 99.6 | 98.6 | 99.3 | 99.1 | 98.9 | 99.6 | 0.24 | 99 | 45.1 | 99.1 | Octet signal [36]: 0.514; FACS binding data [20]: 99.2; FACS binding data [21]: 99; Octet signal [22]: 0.376; Octet signal [23]: 0.697; Octet signal [24]: 0.438; Octet signal [25]: 0.229; Octet signal [27]: 0.22; Octet signal [28]: 0.261; FACS binding data [29]: 98.8; Octet signal [30]: 0.34; FACS binding data [31]: 98.7; FACS binding data [32]: 96.6; FACS binding data [33]: 1.25; Octet signal [34]: 0.456; Octet signal [35]: 0.565
